Experiment [1] has as its target T1, HuCXCL1 (Homo sapiens, UniProt P09341).
T1 construct: made in house; host or cells: Expi293 expression system (transient), protein from the culture supernatant
T1 sequence (P09341 35-107): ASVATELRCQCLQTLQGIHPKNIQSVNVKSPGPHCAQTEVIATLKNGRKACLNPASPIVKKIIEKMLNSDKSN
Kind of experiment: HuCXCL1 binding activity, antigen-immobilized ELISA. The conditions noted are these: HuCXCL1 immobilized at 3 μg/mL. The protocol: Antibodies produced from the hybridomas were evaluated for their HuCXCL1 binding activity by ELISA assay using plates on which the antigen (HuCXCL1 protein) used for immunization had been directly immobilized.
To 96-well plates, phosphate-buffered saline (PBS) containing 3 μg/mL of HuCXCL1 was added in a volume of 50 μL per well, and the plates were allowed to stand overnight at 4° C. After removal of the antigen solution, PBS containing 2% skimmed milk and 0.05% Tween-20 (hereinafter referred to as the blocking solution) was added to each well for blocking reaction, and the plates were allowed to stand at room temperature for 1 hour. After removal of the blocking solution, the culture supernatants of the hybridomas or DT40 were each added in a volume of 50 µL per well and reacted at room temperature for 1 hour. After removal of the culture supernatants and washing with PBS containing 0.05% Tween-20, an HRP-labeled secondary antibody diluted with the blocking solution was added and reacted at room temperature for 1 hour. After washing, TMB (Dako) was added as a chromogenic substrate solution to cause color development, and after 10 minutes, 1 N sulfuric acid was added to stop the reaction, followed by measurement of absorbance at 450 nm.

Experiment [2] relates to CyCXCL1. The experiment can be described thus: Ca2+ Flux assay, CyCXCL1 neutralizing activity in AequoScreen/CXCR2 cells. The class given is cell-based, cynomolgus monkey. The conditions noted are these: CyCXCL1 100 ng per ml; antibody 10 μg per ml. The protocol: For evaluation of neutralizing activity against CyCXCL1, CyCXCL1-induced changes in intracellular calcium ions in AequoScrenn/CXCR2 cells were measured as the luminescence intensity of aequorin.
Sequence of CyCXCL1 (as listed by the source): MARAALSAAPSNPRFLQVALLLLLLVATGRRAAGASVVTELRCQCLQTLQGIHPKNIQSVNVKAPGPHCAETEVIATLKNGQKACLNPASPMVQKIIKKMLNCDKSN
Sequence of CyCXCL1 (P25025 whole entry partner): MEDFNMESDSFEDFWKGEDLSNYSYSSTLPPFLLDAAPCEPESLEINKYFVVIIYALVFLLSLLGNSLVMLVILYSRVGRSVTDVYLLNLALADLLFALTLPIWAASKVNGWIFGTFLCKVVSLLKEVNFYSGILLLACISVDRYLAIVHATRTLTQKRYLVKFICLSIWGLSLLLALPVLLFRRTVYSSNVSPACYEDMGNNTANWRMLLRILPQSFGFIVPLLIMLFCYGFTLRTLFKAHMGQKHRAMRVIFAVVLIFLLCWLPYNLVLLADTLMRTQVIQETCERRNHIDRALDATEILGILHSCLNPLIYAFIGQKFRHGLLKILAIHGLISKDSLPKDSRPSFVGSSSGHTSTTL
AequoScrenn/CXCR2 cells were adjusted in the same manner as shown in [2-2] above. After CyCXCL1 was added to 96-well plates in an amount of 100 ng per ml, purified antibodies were each added in an amount of 10 μg per ml, and the plates were allowed to stand at room temperature for 30 minutes. To these plates, the AequoScree/CXCR2 cell suspension was added in a volume of 50 μL per well, immediately followed by measurement of luminescence intensity.
An antibody found to completely suppress CyCXCL1-induced luminescence from aequorin was determined to have cross-reactivity and indicated with “o” while an antibody found to not completely suppress luminescence from aequorin was indicated with “x” in Table A above.

Experiment [3] has as its target T2, human CXCL2 (Homo sapiens, UniProt P19875).
T2 sequence (P19875 35-107): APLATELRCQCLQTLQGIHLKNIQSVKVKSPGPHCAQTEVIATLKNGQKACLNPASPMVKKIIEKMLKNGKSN
Kind of experiment: Binding to human CXCL2.

For experiment [4], the target named is T3, human CXCL3 (Homo sapiens, UniProt P19876).
T3 sequence (P19876 35-107): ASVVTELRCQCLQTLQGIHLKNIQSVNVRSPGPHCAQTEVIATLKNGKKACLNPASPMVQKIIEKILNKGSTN
Kind of experiment: Binding to human CXCL3.

The subject of experiment [5] is CXCR2-expressing cells. The experiment can be described thus: In vivo migration inhibitory activity test on CXCR2-expressing cells, OCUM-12 orthotopic transplantation (prevention model). More on the design: species or system mouse. The settings on record: for Migration of CXCR2-expressing cells (CXCR2-positive cells per unit area in gastric tumor sections): 20 mg/kg intraperitoneally twice a week, compared to PBS or mouse IgG1.
Excerpt: (§1) The stomachs after measurement of the tumor size in [3-1] above were excised and fixed overnight at room temperature with a 10% neutral buffered formalin solution (Wako Pure Chemical Industries, Ltd., Japan), followed by replacement with PBS. Then, paraffin embedding and section preparation were outsourced to Applied Medical Research Laboratory, Japan. The prepared gastric tumor sections were immunohistologically stained with an anti-CXCR2 antibody to evaluate in vivo CXCR2 cell migration inhibitory activity. The sections were deparaffinized and rehydrated, and then treated to inactivate endogenous peroxidase. After antigen activation treatment, the sections were blocked with PBS containing 2% skimmed milk and 0.1% Tween-20, and reacted overnight at 4° C. with an anti-CXCR2 antibody (Biorbyt) as a primary antibody, which had been diluted to 0.3 μg/mL with the blocking solution. After washing with PBS containing 0.1% Tween-20, the sections were reacted at room temperature for 1 hour with an HRP-labeled goat anti-rabbit IgG antibody (Abcam) as a secondary antibody. After washing with a washing solution, a simple stain DAB solution (5052, Nichirei Corporation, Japan) was used to cause color development. After images of the stained tissues were captured with an Explore (Olympus Corporation, Japan), imaging software CellSens (Olympus Corporation, Japan) was used to calculate CXCR2-positive cells per unit area.
Navarixin is among small molecular compounds that act on CXCR2 and inhibit CXCL1-CXCR2 signaling. […] Then, using a model with OCUM-12 orthotopic transplantation, the migration inhibition of CXCR2-expressing cells and antitumor activity were evaluated in vivo for Navarixin. As a vehicle, ultrapure water containing 20% 2-hydroxypropyl-β-cyclodextrin (FUJIFILM Wako Pure Chemical Corporation, Japan) was used. Navarixin (MedChemExpress) was dissolved in ultrapure water containing 20% 2-hydroxypropyl-β-cyclodextrin, and orally administered at a dose of 100 mg/kg/day in a schedule of once a day for 5 consecutive days, followed by a 2-day withdrawal.
as §1, with “after measurement were excised” for “after measurement of the tumor size in [3-1] above were excised”, “and 0.1% Tween-20 (hereinafter referred to as the blocking solution), and reacted” for “and 0.1% Tween-20, and reacted”, “been diluted 1667-fold with the” for “been diluted to 0.3 μg/mL with the”, “to calculate positive cells per” for “to calculate CXCR2-positive cells per”
The dose-response relationship between antibody dose and in vivo antitumor activity or CXCR2 migration inhibitory activity was evaluated in a xenograft prevention model with OCUM-12 orthotopic transplantation. A prevention model is a model designed to start antibody administration from the day following tumor transplantation. […]

The source of these data is patent US20250154240A1, “ANTI-HUMAN CXCL1 ANTIBODY” (CHIOME BIOSCIENCE INC., priority 2022, published 2025).

B1: 5A-5E11: mouse monoclonal anti-HuCXCL1 antibody clone; VH SEQ ID NO: 17, VL SEQ ID NO: 21 (antibody, listed as Mus musculus, V domains shown)
VH: QVQLQQSGAELVRPGSSVKISCKASGYAFSDYWMNWVKQRPGQGLEWIGQIYPGDGDTNYNGKFKGKGTLTADKSSSTAYMQLNSLTSEDSAVYFCARERDYDVAMDYWGQGTSVTVSS
VL: DIQMTQSPSSLSASLGGKVTITCKASQDINKYIAWFQHKPGKGPRLVIHYTSILQPGIPSRFSGVGSGRDYSFSIRNLEPEDIATYYCLQYDNLPWTFGGGTKLEIK
On to B1, for which the “Binding activity to HuCXCL1 ELISA” value in experiment [1] is reported as “∘”. Moreover, in experiment [2], the “CyCXCL1 neutralizing activity Ca^2+ Flux assay” value is “∘”. In addition, in experiment [3], the “Binding to human CXCL2” value is “also bind”. In addition, in experiment [4], the “Binding to human CXCL3” value is given as “also bind”. Also, in experiment [5] (3 weeks), the “Migration of CXCR2-expressing cells (CXCR2-positive cells per unit area in gastric tumor sections)” value is listed as “significantly suppress the migration of CXCR2-expressing cells”.

B2: 028-8-12: human antibody against CXCL1 from the human ADLib technique; VH SEQ ID NO: 25, VL SEQ ID NO: 29 (antibody, listed as Gallus gallus, V domains shown)
VH: EVQLLESGGGLVQPGGSLRLSCAASGFTFSELSMSWVRQAPGKGLEWVSAISGSGGSTYYADSVKGRFTISRDNSKNTLYLQMNSLRAEDTAVYYCAREGGRLEPYYYYYAMDVWGQGTPVTVSS
VL: DIQMTQSPSSLSASVGDRVTITCRASQSISDNLHWYQQKPGKAPKLLIYDASNLESGVPSRFSGSGSGTDFTLTINSLQPEDFATYYCQQYYSTPLTFGQGTKLEIK
Turning to B2, the “Binding activity to HuCXCL1 ELISA” value in experiment [1] is recorded as “∘”. Besides, the “CyCXCL1 neutralizing activity Ca^2+ Flux assay” value in experiment [2] is recorded as “∘”. For the same molecule, in experiment [3], the “Binding to human CXCL2” value is given as “also bind”. In addition, the “Binding to human CXCL3” value in experiment [4] is recorded as “also bind”. Besides, the “Migration of CXCR2-expressing cells (CXCR2-positive cells per unit area in gastric tumor sections)” value in experiment [5] (3 weeks) is listed as “significantly suppress the migration of CXCR2-expressing cells”.

B3: 1A-7H10: mouse monoclonal anti-HuCXCL1 antibody clone; VH SEQ ID NO: 1, VL SEQ ID NO: 5 (antibody, listed as Mus musculus, V domains shown)
VH: QVQLKESGPVLVAPSQSLSITCSVSGFSSTTYGVHWVRQPPGQGLEWLGVIWAGGSTNYNSALMSRLSISKDNSKSQVFLKMNSLQTDDTAMYYCATQYHYPFAYWGQGTLVTVSA
VL: NIVMTQSPKSMSMSVGERVTLSCKASENVGIYVSWYQQKPEQSPKLMIYGASNRNTGVPDRFTGSGSATDFTLTISSVQAEDLADYYCGQSYSYPLTFGAGTKLELK
On to B3, for which the “Binding activity to HuCXCL1 ELISA” value in experiment [1] is reported as “∘”. Moreover, the “CyCXCL1 neutralizing activity Ca^2+ Flux assay” value in experiment [2] is “∘”. Moreover, the “Binding to human CXCL2” value in experiment [3] was “also bind”. Also, the “Binding to human CXCL3” value in experiment [4] was “also bind”. For the same molecule, the “Migration of CXCR2-expressing cells (CXCR2-positive cells per unit area in gastric tumor sections)” value in experiment [5] (3 weeks) is “significantly suppress the migration of CXCR2-expressing cells”.

B4: Hu5A-5E11: humanized antibody VH1/VL1; VH SEQ ID NO: 76, VL SEQ ID NO: 78 (antibody, V domains shown)
VH: QVQLVQSGAEVKKPGSSVKVSCKASGYAFSDYWMNWVRQAPGQGLEWIGQIYPGSGDTNYNAKFKGKGTITADKSTSTAYMELSSLRSEDTAVYYCARERDYDVAMDYWGQGTTVTVSS
VL: DIQMTQSPSSLSASVGDRVTITCKASQDINKYIAWFQQKPGKAPKLVIHYTSILQPGVPSRFSGSGSGTDYTFTISSLQPEDIATYYCLQYDNLPWTFGGGTKVEIK
For B4, in experiment [5] (400 μg/head intraperitoneally twice a week, 3 weeks, compared to hIgG1 antibody), the “Migration of CXCR2-expressing cells (positive cells per unit area)” value is “significantly suppress the migration of CXCR2-expressing cells”. Moreover, the “Dose at which the migration suppressive effect tended to reach a plateau” value in experiment [5] (prevention model) is ≥ 60 μg/head.

B5: 4A-2F7: mouse monoclonal anti-HuCXCL1 antibody clone; VH SEQ ID NO: 9, VL SEQ ID NO: 13 (antibody, listed as Mus musculus, V domains shown)
VH: QVTLKESGPGILKPSQTLSLTCSFSGFSLSTSGMGVDWIRQPSGKGLEWLAHIWWDDDKYYNPSLKSQLTISKDTSRNQVFLKITSVDTADTATYYCARSYGYDMDYYAMDYWGQGTSVTVSS
VL: DIQMTQSPSSLSASLGERVSLTCRASQEISGYLSWLQQKPDGTIKRLIYAASTLDSGVPKRFSGSRSGSDYSLTISSLESEDFADYYCLQYASYPPWTFGGGTKLEIK
B5: the “Binding activity to HuCXCL1 ELISA” value in experiment [1] is given as “∘”. The “CyCXCL1 neutralizing activity Ca^2+ Flux assay” value in experiment [2] is reported as “∘”. In addition, the “Binding to human CXCL2” value in experiment [3] is given as “also bind”. Moreover, the “Binding to human CXCL3” value in experiment [4] is reported as “also bind”. Besides, the “Migration of CXCR2-expressing cells (CXCR2-positive cells per unit area in gastric tumor sections)” value in experiment [5] (3 weeks) is “significantly suppress the migration of CXCR2-expressing cells”.
